Assay results from patent publication US5603943A, “Nasally administrable compositions” (Dott Research Laboratory, priority 1994, dated 1997).
Where “and” joins values, the source holds several entries; their conditions need not be identical. Equal entries are not always repeated. Ends that are not written are not given here.

Experiments:
[1] = Nasal absorption, clinical effect and irritation (general statement); type: in vivo; settings: powder in specific carrier, nasal route
[2] = test system: blood sugar; assay: Average fall of the blood sugar after nasal or subcutaneous insulin (Test Example 1); type: in vivo, male New Zealand rabbits
Experimental: A nasally administrable composition in powdery form was prepared by formulating insulin as a physiologically active peptide at the rate of 2.4 mg/rabbit (5 insulin unit (IU)/rabbit) with hydroxyapatite as a carrier having a mean particle size ranging from 40 to 45 μm.
The resulting composition was nasally administered once to six male New Zealand rabbits.
The average fall of the blood sugar was measured and represented in percentage (%) at 0, 15, 30, 60, 120 and 180 minutes after administration.
For comparison, 2 (IU)/rabbit of insulin was administered subcutaneously to six male New Zealand rabbits and the average fall of the blood sugar was measured and represented in percentage (%) at 0, 60, 120, 240 and 360 minutes after administration.

[3] = Somatropin blood concentration, nasal powder with hydroxyapatite or calcium carbonate (Test Example 10); type: in vivo, healthy male adults (human); settings: for Concentration of somatropin in the blood: nasal 6.825 somatropin unit/25 mg
Experimental: The blood (2.5 ml) was collected from each of the tested adults prior to administration and then at 5, 10, 15, 20, 30, 45, 60, 90, 120 and 150 minutes after administration.

[4] = Somatropin blood concentration, nasal powder with calcium lactate or calcium carbonate (Test Example 11); type: in vivo, healthy male adults (human)
Experimental: The blood (2.5 ml) was collected from each of the tested adults prior to administration and then at 5, 10, 15, 20, 30, 45, 60, 90, 120, 150 and 180 minutes after administration.

[5] = relative, among calcitonins; cited from earlier work

Substance: insulin: peptide hormone formulated with hydroxyapatite for nasal administration; also given subcutaneously as comparison
- absorption into the body [1]: well absorbed into the body
- clinical effects [1]: high clinical effects
- Blood sugar, percent of initial value ([2]; S.C. comparison, 2 IU/rabbit, 0 min): 100%
- Blood sugar, percent of initial value ([2]; S.C. comparison, 2 IU/rabbit, 60 min): 57%
- Blood sugar, percent of initial value ([2]; S.C. comparison, 2 IU/rabbit, 120 min): 56%
- Blood sugar, percent of initial value ([2]; S.C. comparison, 2 IU/rabbit, 240 min): 84%
- Blood sugar, percent of initial value ([2]; S.C. comparison, 2 IU/rabbit, 360 min): 94%
- absorption through nasal route ([2]; hydroxyapatite, rabbits): high extent of absorption
- Blood sugar, percent of initial value ([2]; nasal, 5 IU/rabbit, hydroxyapatite, 0 min): 100%
- Blood sugar, percent of initial value ([2]; nasal, 5 IU/rabbit, hydroxyapatite, 15 min): 105%
- Blood sugar, percent of initial value ([2]; nasal, 5 IU/rabbit, hydroxyapatite, 30 min): 66%
- Blood sugar, percent of initial value ([2]; nasal, 5 IU/rabbit, hydroxyapatite, 60 min): 67%
- Blood sugar, percent of initial value ([2]; nasal, 5 IU/rabbit, hydroxyapatite, 120 min): 84%
- Blood sugar, percent of initial value ([2]; nasal, 5 IU/rabbit, hydroxyapatite, 180 min): 96%

Substance: somatropin: somatropin (growth hormone; recombinant type--NOVO), 150 mg per composition (1,000 mg) with carrier
- Concentration of somatropin in the blood ([3]; 0 min (predose), calcium carbonate, individual cases No. 27-28 in order): 0.28 ng/mL and 0.24 ng/mL
- Concentration of somatropin in the blood ([3]; 0 min (predose), hydroxyapatite, individual cases No. 25-26 in order): 0.49 ng/mL and 0.76 ng/mL
- Concentration of somatropin in the blood ([3]; 5 min, calcium carbonate, individual cases No. 27-28 in order): 0.96 ng/mL and 0.55 ng/mL
- Concentration of somatropin in the blood ([3]; 5 min, hydroxyapatite, individual cases No. 25-26 in order): 2.44 ng/mL and 3.18 ng/mL
- Concentration of somatropin in the blood ([3]; 10 min, calcium carbonate, individual cases No. 27-28 in order): 2.55 ng/mL and 1.08 ng/mL
- Concentration of somatropin in the blood ([3]; 10 min, hydroxyapatite, individual cases No. 25-26 in order): 3.59 ng/mL and 2.27 ng/mL
- Concentration of somatropin in the blood ([3]; 15 min, calcium carbonate, individual cases No. 27-28 in order): 2.84 ng/mL and 1.41 ng/mL
- Concentration of somatropin in the blood ([3]; 15 min, hydroxyapatite, individual cases No. 25-26 in order): 4.66 ng/mL and 2.00 ng/mL
- Concentration of somatropin in the blood ([3]; 20 min, calcium carbonate, individual cases No. 27-28 in order): 3.02 ng/mL and 1.78 ng/mL
- Concentration of somatropin in the blood ([3]; 20 min, hydroxyapatite, individual cases No. 25-26 in order): 6.25 ng/mL and 1.86 ng/mL
- Concentration of somatropin in the blood ([3]; 30 min, calcium carbonate, individual cases No. 27-28 in order): 4.11 ng/mL and 1.91 ng/mL
- Concentration of somatropin in the blood ([3]; 30 min, hydroxyapatite, individual cases No. 25-26 in order): 5.21 ng/mL and 1.67 ng/mL
- Concentration of somatropin in the blood ([3]; 45 min, calcium carbonate, individual cases No. 27-28 in order): 8.93 ng/mL and 1.99 ng/mL
- Concentration of somatropin in the blood ([3]; 45 min, hydroxyapatite, individual cases No. 25-26 in order): 4.16 ng/mL and 1.80 ng/mL
- Concentration of somatropin in the blood ([3]; 60 min, calcium carbonate, individual cases No. 27-28 in order): 13.10 ng/mL and 2.11 ng/mL
- Concentration of somatropin in the blood ([3]; 60 min, hydroxyapatite, individual cases No. 25-26 in order): 2.93 ng/mL and 1.61 ng/mL
- Concentration of somatropin in the blood ([3]; 90 min, calcium carbonate, individual cases No. 27-28 in order): 14.60 ng/mL and 1.27 ng/mL
- Concentration of somatropin in the blood ([3]; 90 min, hydroxyapatite, individual cases No. 25-26 in order): 1.45 ng/mL and 1.41 ng/mL
- Concentration of somatropin in the blood ([3]; 120 min, calcium carbonate, individual cases No. 27-28 in order): 5.65 ng/mL and 0.92 ng/mL
- Concentration of somatropin in the blood ([3]; 120 min, hydroxyapatite, individual cases No. 25-26 in order): 0.76 ng/mL and 1.16 ng/mL
- Concentration of somatropin in the blood ([3]; 150 min, calcium carbonate, individual cases No. 27-28 in order): 2.97 ng/mL and 0.80 ng/mL
- Concentration of somatropin in the blood ([3]; 150 min, hydroxyapatite, individual cases No. 25-26 in order): 0.91 ng/mL
- absorption through nasal route ([3]; hydroxyapatite and calcium carbonate): high extent of absorption
- Concentration of somatropin in the blood ([4]; 0 min (predose), nasal 6.825 somatropin unit/25 mg, calcium carbonate, individual cases No. 31-32 in order): 0.15 ng/mL and 0.69 ng/mL
- Concentration of somatropin in the blood ([4]; 0 min (predose), nasal 6,825 (so in the source) somatropin unit/25 mg, calcium lactate, individual cases No. 29-30 in order): 1.15 ng/mL and 0.16 ng/mL
- Concentration of somatropin in the blood ([4]; 5 min, nasal 6.825 somatropin unit/25 mg, calcium carbonate, individual cases No. 31-32 in order): 0.46 ng/mL and 6.15 ng/mL
- Concentration of somatropin in the blood ([4]; 5 min, nasal, 25 mg, calcium lactate, individual cases No. 29-30 in order): 2.56 ng/mL and 0.30 ng/mL
- Concentration of somatropin in the blood ([4]; 10 min, nasal 6.825 somatropin unit/25 mg, calcium carbonate, individual cases No. 31-32 in order): 0.81 ng/mL and 2.81 ng/mL
- Concentration of somatropin in the blood ([4]; 10 min, nasal, 25 mg, calcium lactate, individual cases No. 29-30 in order): 4.29 ng/mL and 0.37 ng/mL
- Concentration of somatropin in the blood ([4]; 15 min, nasal 6.825 somatropin unit/25 mg, calcium carbonate, individual cases No. 31-32 in order): 1.13 ng/mL and 2.49 ng/mL
- Concentration of somatropin in the blood ([4]; 15 min, nasal, 25 mg, calcium lactate, individual cases No. 29-30 in order): 5.11 ng/mL and 0.65 ng/mL
- Concentration of somatropin in the blood ([4]; 20 min, nasal 6.825 somatropin unit/25 mg, calcium carbonate, individual cases No. 31-32 in order): 1.30 ng/mL and 2.20 ng/mL
- Concentration of somatropin in the blood ([4]; 20 min, nasal, 25 mg, calcium lactate, individual cases No. 29-30 in order): 5.87 ng/mL and 0.72 ng/mL
- Concentration of somatropin in the blood ([4]; 30 min, nasal 6.825 somatropin unit/25 mg, calcium carbonate, individual cases No. 31-32 in order): 1.64 ng/mL and 2.12 ng/mL
- Concentration of somatropin in the blood ([4]; 30 min, nasal, 25 mg, calcium lactate, individual cases No. 29-30 in order): 7.70 ng/mL and 0.79 ng/mL
- Concentration of somatropin in the blood ([4]; 45 min, nasal 6.825 somatropin unit/25 mg, calcium carbonate, individual cases No. 31-32 in order): 1.79 ng/mL and 1.67 ng/mL
- Concentration of somatropin in the blood ([4]; 45 min, nasal, 25 mg, calcium lactate, individual cases No. 29-30 in order): 5.99 ng/mL and 0.71 ng/mL
- Concentration of somatropin in the blood ([4]; 60 min, nasal 6.825 somatropin unit/25 mg, calcium carbonate, individual cases No. 31-32 in order): 1.47 ng/mL and 1.36 ng/mL
- Concentration of somatropin in the blood ([4]; 60 min, nasal, 25 mg, calcium lactate, individual cases No. 29-30 in order): 6.16 ng/mL and 0.62 ng/mL
- Concentration of somatropin in the blood ([4]; 90 min, nasal 6.825 somatropin unit/25 mg, calcium carbonate, individual cases No. 31-32 in order): 1.18 ng/mL and 1.02 ng/mL
- Concentration of somatropin in the blood ([4]; 90 min, nasal, 25 mg, calcium lactate, individual cases No. 29-30 in order): 3.39 ng/mL and 0.58 ng/mL
- Concentration of somatropin in the blood ([4]; 120 min, nasal 6.825 somatropin unit/25 mg, calcium carbonate, individual cases No. 31-32 in order): 0.79 ng/mL and 0.48 ng/mL
- Concentration of somatropin in the blood ([4]; 120 min, nasal, 25 mg, calcium lactate, individual cases No. 29-30 in order): 1.70 ng/mL and 0.32 ng/mL
- Concentration of somatropin in the blood ([4]; 150 min, nasal 6.825 somatropin unit/25 mg, calcium carbonate, individual cases No. 31-32 in order): 0.59 ng/mL and 0.37 ng/mL
- Concentration of somatropin in the blood ([4]; 150 min, nasal, 25 mg, calcium lactate, individual cases No. 29-30 in order): 0.24 ng/mL
- Concentration of somatropin in the blood ([4]; 180 min, nasal 6.825 somatropin unit/25 mg, calcium carbonate, individual cases No. 31-32 in order): 1.67 ng/mL and 0.48 ng/mL
- Concentration of somatropin in the blood ([4]; 180 min, nasal, 25 mg, calcium lactate, individual cases No. 29-30 in order): 0.45 ng/mL and 1.02 ng/mL
- absorption through nasal route ([4]; calcium lactate and calcium carbonate): high extent of absorption
- absorption into the body [1]: well absorbed into the body
- clinical effects [1]: high clinical effects

Substance: human calcitonin: naturally occurring calcitonin extracted from the origin and commercially available
- stability [5]: higher than salmon calcitonin

Substance: eel calcitonin: naturally occurring calcitonin extracted from the origin and commercially available (CSNLSTCVLGKLSQELHKLQTYPRTDVGAGTP; ends and bridges not checked; cysteine pairing not given here; UniProt P01262 1-32, looked up)
- stability [5]: higher in stability than human calcitonin
